Values of other authors, collected in publication PMC7677405.

Target: insulin receptor (Homo sapiens) (UniProt P06213)
Chain of UniProt P06213 (P06213 763-1382): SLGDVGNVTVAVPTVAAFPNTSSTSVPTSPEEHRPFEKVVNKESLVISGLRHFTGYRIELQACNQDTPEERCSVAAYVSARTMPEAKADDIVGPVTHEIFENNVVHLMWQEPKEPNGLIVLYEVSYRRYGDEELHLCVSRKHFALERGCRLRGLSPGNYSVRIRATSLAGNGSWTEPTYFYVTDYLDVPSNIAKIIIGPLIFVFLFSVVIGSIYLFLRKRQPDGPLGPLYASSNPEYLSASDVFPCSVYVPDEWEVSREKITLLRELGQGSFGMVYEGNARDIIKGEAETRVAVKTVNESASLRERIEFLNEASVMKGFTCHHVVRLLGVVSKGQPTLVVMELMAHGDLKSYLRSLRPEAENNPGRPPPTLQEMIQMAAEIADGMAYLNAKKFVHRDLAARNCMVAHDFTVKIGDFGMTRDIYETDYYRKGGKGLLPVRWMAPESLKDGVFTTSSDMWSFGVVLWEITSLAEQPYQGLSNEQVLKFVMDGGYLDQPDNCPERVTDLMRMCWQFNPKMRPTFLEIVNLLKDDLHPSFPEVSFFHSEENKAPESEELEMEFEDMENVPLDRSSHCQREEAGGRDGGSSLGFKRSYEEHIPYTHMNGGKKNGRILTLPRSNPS

Chain of insulin (P01308 90-110): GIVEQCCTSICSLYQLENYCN

insulin (from UniProt P01308)
Kd: 28 nM
